Laboratory results from the supplement of paper PMC10598134.
± gives the standard deviation.

Assay: collision cross section of modified peptide (TIMS, N2, iRT-aligned); higher = larger / more extended gas-phase ion
Outline: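 Values are averages of 1–3 technical replicates of the most abundant feature for each charge state. Collision cross section was obtained from the Mason-Schamp equation after 1/K0 calibration with three reference ions and run-wise alignment to the median iRT peptide deviation. Synthetic peptide pools (iRT standard spiked 1:40) were separated on a 120-min nanoflow C18 gradient at 60 °C, analysed on a timsTOF Pro/HT (dda-PASEF, nitrogen, ~2.4 mbar) and identified with MaxQuant.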

[1] = charge state: 2, modification: Acetyl (K)
[2] = charge state: 2, modification: Butyryl
[3] = charge state: 3, modification: Acetyl (K)
[4] = charge state: 2, modification: GlyGly (K)
[5] = charge state: 3, modification: GlyGly (K)
[6] = charge state: 2, modification: Glutarylation
[7] = charge state: 3, modification: Glutarylation
[8] = charge state: 3, modification: Methyl (R)
[9] = charge state: 2, modification: Malonyl
[10] = charge state: 2, modification: Biotin
[11] = charge state: 2, modification: Dimethyl (K)
[12] = charge state: 3, modification: Dimethyl (K)
[13] = charge state: 3, modification: Propionyl
[14] = charge state: 2, modification: Succinyl
[15] = charge state: 3, modification: Succinyl

Sequence “ANLEKAQAELVGTADEATR [_ANLEK(Methyl (K))AQAELVGTADEATR_]” has a collision cross section (charge state: 2, modification: Methyl (K)) of 471.05 Å² and a collision cross section (charge state: 3, modification: Methyl (K)) of 523.1 ± 0.87 Å².

“FGDSRGGGGNFGPGPGSNFR [_FGDSR(Citrullination (R))GGGGNFGPGPGSNFR_]” showed a collision cross section (charge state: 3, modification: Citrullination (R)) of 490.23 ± 0.77 Å².

For “SGKFTQQDIDEAK [_SGK(Acetyl (K))FTQQDIDEAK_]”, the collision cross section [1] was 412.93 ± 2.8 Å².

Work on GSLEKGSPEDK [_GSLEK(Butyryl)GSPEDK_] yielded a collision cross section [2] of 371.66 ± 0.71 Å².

In the case of “TEVLSPNSKVESK [_TEVLSPNSK(Acetyl (K))VESK_]”, the collision cross section [1] is reported as 411.3 ± 1.6 Å² and the collision cross section [3] is reported as 448.45 ± 2.4 Å².

With “ASDTSSETVFGKR [_ASDTSSETVFGK(GlyGly (K))R_]” the collision cross section [4] was 414.9 ± 1.4 Å² and the collision cross section [5] was 487.28 ± 2 Å².

In the case of DFDTALKHYDK [_DFDTALK(GlyGly (K))HYDK_], the collision cross section [4] is reported as 400.17 ± 0.77 Å² and the collision cross section [5] is reported as 467.02 ± 1.1 Å².

With “GFALVGVGSEASSKK [_GFALVGVGSEASSK(Gluratylation)K_]” the collision cross section [6] was 416.74 ± 0.49 Å² and the collision cross section [7] was 499.26 ± 3.6 Å².

“VFIGNLNTLVVKK [_VFIGNLNTLVVK(Acetyl (K))K_]” showed a collision cross section [1] of 409.46 ± 1.7 Å² and a collision cross section [3] of 485 Å².

For “SGATAGAAGGRGK [_SGATAGAAGGR(Methyl (R))GK_]”, the collision cross section (charge state: 2, modification: Methyl (R)) was 366.66 ± 1.5 Å² and the collision cross section [8] was 448.31 ± 3.9 Å².

With “SLFFGGKGAPLQR [_SLFFGGK(Butyryl)GAPLQR_]” the collision cross section [2] was 406.8 ± 0.75 Å² and the collision cross section (charge state: 3, modification: Butyryl) was 492.14 ± 2.1 Å².

TTEETSKPK [_TTEETSK(Malonyl)PK_] showed a collision cross section [9] of 336.7 ± 0.59 Å².

With “YGRGQLNYPLPDFSK [_YGR(Methyl (R))GQLNYPLPDFSK_]” the collision cross section [8] was 496.04 ± 0.79 Å².

In the case of LGNDFHTNKR [_LGNDFHTNK(Malonyl)R_], the collision cross section [9] is reported as 378.38 Å².

For “LTEKELAEAASK [_LTEK(Gluratylation)ELAEAASK_]”, the collision cross section [6] was 395.13 ± 2.6 Å² and the collision cross section [7] was 453.47 ± 1.2 Å².

In the case of “IHNAENIQPGEQKYEYK [_IHNAENIQPGEQK(Acetyl (K))YEYK_]”, the collision cross section [1] is reported as 481.31 Å² and the collision cross section [3] is reported as 525.52 ± 2.1 Å².

Sequence “GNPGVGTQGPR [_GNP(Hydroxyproline)GVGTQGPR_]” has a collision cross section (charge state: 2, modification: Hydroxyproline) of 327.91 ± 0.79 Å².

“SDSGKPYYYNSQTK [_SDSGK(Biotin)PYYYNSQTK_]” gave a collision cross section [10] of 440.01 ± 0.23 Å².

Work on LTEKELAEAASK [_LTEK(Formyl)ELAEAASK_] yielded a collision cross section (charge state: 2, modification: Formyl) of 382.92 ± 0.9 Å².

IGNSYFKEEK [_IGNSYFK(Biotin)EEK_] gave a collision cross section [10] of 398.98 Å².

“TTLTSDESVKDHTTAGR [_TTLTS(HexNAc (ST))DESVKDHTTAGR_]” showed a collision cross section (charge state: 3, modification: HexNAc (ST)) of 545.39 ± 0.18 Å².

In the case of “LFVGGIKEDTEEHHLR [_LFVGGIK(hydroxyisobutyryl)EDTEEHHLR_]”, the collision cross section (charge state: 2, modification: hydroxyisobutyryl) is reported as 501.81 Å² and the collision cross section (charge state: 3, modification: hydroxyisobutyryl) is reported as 546.81 ± 1.2 Å².

“VSPASSVDSNIPSSQGYKK [_VSPASSVDSNIPSSQGYK(Acetyl (K))K_]” showed a collision cross section [1] of 458.38 ± 2.6 Å² and a collision cross section [3] of 553.13 ± 0.49 Å².

For “DVNAAIAAIKTK [_DVNAAIAAIK(Dimethyl (K))TK_]”, the collision cross section [11] was 394.29 ± 0.87 Å² and the collision cross section [12] was 456.19 ± 1.7 Å².

Work on LDHLAEKFR [_LDHLAEK(Propionyl)FR_] yielded a collision cross section [13] of 442.11 ± 0.59 Å².

SPDEAYAIAKK [_SPDEAYAIAK(Propionyl)K_] showed a collision cross section (charge state: 2, modification: Propionyl) of 373.53 ± 0.94 Å² and a collision cross section [13] of 448.43 ± 0.74 Å².

“ISSNFSSIIAEKLR [_ISSNFSSIIAEK(Dimethyl (K))LR_]” gave a collision cross section [11] of 442.58 ± 1.2 Å² and a collision cross section [12] of 495.15 ± 0.74 Å².

In the case of “IVEKYGYTHLSAGELLR [_IVEK(Succinyl)YGYTHLSAGELLR_]”, the collision cross section [14] is reported as 498.62 ± 0.45 Å² and the collision cross section [15] is reported as 565.13 ± 1.1 Å².

For “DYSSGFGGKYGVQADR [_DYSSGFGGK(Biotin)YGVQADR_]”, the collision cross section [10] was 450.72 ± 0.16 Å² and the collision cross section (charge state: 3, modification: Biotin) was 509.9 ± 0.34 Å².

In the case of SSFAYKDQNENR [_SSFAYK(Succinyl)DQNENR_], the collision cross section [14] is reported as 400.73 ± 0.25 Å² and the collision cross section [15] is reported as 453.96 Å².
